# Data from the Immune Epitope Database (IEDB).
# Assays:
# HLA-A*01:01 = test: IEDB peptide-MHC binding, purified MHC/competitive/radioactivity; filed as Kd, often an IC50 or EC50 that approximates it; ≥ and ≤ were set here for values at or beyond the usual limits of such assays
# HLA-A*26:01 [1] = test: as above
# HLA-A*29:02 = test: as above
# HLA-A*30:01 = test: as above
# HLA-A*30:02 = test: as above
# HLA-A*32:01 = test: as above
# HLA-B*07:02 = test: as above
# HLA-B*15:01 [2] = test: as above
# HLA-B*35:01 = test: as above
# HLA-A*26:01 [3] = test: IEDB peptide-MHC binding, purified MHC/direct/fluorescence; filed as Kd, often an IC50 or EC50 that approximates it; ≥ and ≤ were set here for values at or beyond the usual limits of such assays; conditions: source organism: Mycobacterium tuberculosis variant bovis
# HLA-B*15:01 [4] = test: IEDB peptide-MHC binding, purified MHC/competitive/fluorescence; filed as Kd, often an IC50 or EC50 that approximates it; ≥ and ≤ were set here for values at or beyond the usual limits of such assays
# HLA-B*51:01 [5] = test: IEDB peptide-MHC binding, purified MHC/competitive/radioactivity; filed as Kd, often an IC50 or EC50 that approximates it; ≥ and ≤ were set here for values at or beyond the usual limits of such assays
# HLA-A*24:03 = test: IEDB peptide-MHC binding, purified MHC/direct/fluorescence; filed as Kd, often an IC50 or EC50 that approximates it; ≥ and ≤ were set here for values at or beyond the usual limits of such assays; conditions: source organism: Mammarenavirus paranaense
# HLA-A*23:01 = test: IEDB peptide-MHC binding, purified MHC/competitive/radioactivity; filed as Kd, often an IC50 or EC50 that approximates it; ≥ and ≤ were set here for values at or beyond the usual limits of such assays; conditions: source organism: Mammarenavirus machupoense
# HLA-A*24:02 = test: as above; conditions: source organism: Mammarenavirus machupoense
# HLA-B*57:01 = test: IEDB peptide-MHC binding, purified MHC/direct/fluorescence; filed as Kd, often an IC50 or EC50 that approximates it; ≥ and ≤ were set here for values at or beyond the usual limits of such assays; conditions: source organism: Campylobacter jejuni
# HLA-B*58:01 = test: as above; conditions: source organism: Campylobacter jejuni
# HLA-B*08:01 = test: IEDB peptide-MHC binding, purified MHC/competitive/radioactivity; filed as Kd, often an IC50 or EC50 that approximates it; ≥ and ≤ were set here for values at or beyond the usual limits of such assays; conditions: source organism: Vaccinia virus WR
# HLA-B*51:01 [6] = test: IEDB peptide-MHC binding, purified MHC/competitive/fluorescence; filed as Kd, often an IC50 or EC50 that approximates it; ≥ and ≤ were set here for values at or beyond the usual limits of such assays; conditions: source organism: Listeria monocytogenes FSL J1-194
# HLA-B*39:01 = test: as above; conditions: source organism: Vibrio parahaemolyticus AQ3810
# HLA-A*02:01 = test: as above; conditions: source organism: Escherichia coli O139:H28 str. E24377A
# [7] = source organism: Mammarenavirus choriomeningitidis
# [8] = source organism: Dengue virus 1 Brazil/97-11/1997
# [9] = source organism: Mammarenavirus guanaritoense
# [10] = source organism: Dengue virus 2 Jamaica/1409/1983
# [11] = source organism: Dengue virus 4 Philippines/H241/1956
# [12] = source organism: Vaccinia virus WR
sequence,measurement,setting,value
DTSNTGRAEL,Kd,HLA-A*01:01; [7],≥ 50200 nM
same,Kd,HLA-A*26:01 [1]; [7],16000 nM
same,Kd,HLA-A*29:02; [7],≥ 71400 nM
same,Kd,HLA-A*30:01; [7],≥ 24500 nM
same,Kd,HLA-A*30:02; [7],7180 nM
same,Kd,HLA-A*32:01; [7],≥ 69900 nM
MATFKMRPM,Kd,HLA-B*07:02; [8],158 nM
PTMEIEDQEY,Kd,HLA-A*01:01; [9],17.2 nM
same,Kd,HLA-A*26:01 [1]; [9],1140 nM
same,Kd,HLA-A*29:02; [9],11300 nM
same,Kd,HLA-A*30:01; [9],≥ 70400 nM
same,Kd,HLA-A*30:02; [9],8840 nM
same,Kd,HLA-A*32:01; [9],≥ 49800 nM
GINKRSTPF,Kd,HLA-B*15:01 [2]; source organism: Vaccinia virus Copenhagen,0.723 nM
LLSPVRVPNY,Kd,HLA-A*01:01; [10],15100 nM
same,Kd,HLA-A*30:02; [10],306 nM
same,Kd,HLA-B*15:01 [2]; [10],2.99 nM
YPKTKLTDWD,Kd,HLA-B*35:01; [11],1310 nM
ELVDTTEMY,Kd,HLA-A*26:01 [3],207 nM
same,Kd,HLA-B*15:01 [4]; source organism: Mycobacterium tuberculosis H37Rv,324 nM
SPNPTIEAGR,Kd,HLA-B*07:02; [10],1400 nM
QPHWIAASII,Kd,HLA-B*07:02; [10],47.5 nM
same,Kd,HLA-B*51:01 [5]; [10],468 nM
LIKVLVEHG,Kd,HLA-B*15:01 [2]; [12],621 nM
MKLVMAFIAF,Kd,HLA-B*35:01; [8],1830 nM
PYENLLYKL,Kd,HLA-A*24:03,785 nM
same,Kd,HLA-A*23:01,81.5 nM
same,Kd,HLA-A*24:02,521 nM
same,Kd,HLA-A*29:02; source organism: Mammarenavirus machupoense,2340 nM
YICILINHG,Kd,HLA-B*15:01 [2]; [12],813 nM
KSNKIRGRM,Kd,HLA-B*57:01,988 nM
same,Kd,HLA-B*58:01,192 nM
FIAKHFLEL,Kd,HLA-B*08:01,1.3 nM
same,Kd,HLA-B*15:01 [2]; [12],6500 nM
KQEHETSWHY,Kd,HLA-A*30:02; [10],≥ 69700 nM
same,Kd,HLA-B*15:01 [2]; [10],125 nM
LPGADTQGSN,Kd,HLA-B*35:01; [10],2840 nM
SSSPTILDNY,Kd,HLA-A*01:01; [9],22.6 nM
same,Kd,HLA-A*26:01 [1]; [9],17800 nM
same,Kd,HLA-A*29:02; [9],99 nM
same,Kd,HLA-A*30:01; [9],≥ 21000 nM
same,Kd,HLA-A*30:02; [9],42.5 nM
same,Kd,HLA-A*32:01; [9],≥ 69900 nM
LKYAPFFQV,Kd,HLA-B*51:01 [6],≥ 20000 nM
THPERTLRL,Kd,HLA-B*39:01,2500 nM
KNNNEFAFF,Kd,HLA-B*15:01 [2]; [12],1330 nM
KLNQLSRKEF,Kd,HLA-B*15:01 [2]; source organism: Dengue virus 3 Martinique/1243/1999,70.6 nM
RIRNKFMFI,Kd,HLA-A*30:01; [12],0.0693 nM
same,Kd,HLA-B*08:01,1.58 nM
same,Kd,HLA-B*15:01 [2]; [12],766 nM
SPAAAQKAT,Kd,HLA-B*07:02; [11],14.3 nM
SPIINRKGKV,Kd,HLA-B*07:02; [11],248 nM
same,Kd,HLA-B*51:01 [5]; [11],≥ 69600 nM
ASITAFKSM,Kd,HLA-B*15:01 [2]; [12],25 nM
LMRRGDLPVW,Kd,HLA-B*15:01 [2]; [10],159 nM
KMSGKTPAV,Kd,HLA-A*02:01,1.7 nM
same,Kd,HLA-B*15:01 [4]; source organism: Escherichia coli O139:H28 str. E24377A,1160 nM
ILWILDRLF,Kd,HLA-B*15:01 [4]; source organism: Influenza A virus (A/Memphis/1/1978(H1N1)),≥ 20000 nM
